Columns and labels:
[1] = target: His-Max made in bacteria, P61244
[2] = target: T1, endogenous Omi protein precipitated from 293 cells with the anti-Omi polyclonal antibody
T1 chain: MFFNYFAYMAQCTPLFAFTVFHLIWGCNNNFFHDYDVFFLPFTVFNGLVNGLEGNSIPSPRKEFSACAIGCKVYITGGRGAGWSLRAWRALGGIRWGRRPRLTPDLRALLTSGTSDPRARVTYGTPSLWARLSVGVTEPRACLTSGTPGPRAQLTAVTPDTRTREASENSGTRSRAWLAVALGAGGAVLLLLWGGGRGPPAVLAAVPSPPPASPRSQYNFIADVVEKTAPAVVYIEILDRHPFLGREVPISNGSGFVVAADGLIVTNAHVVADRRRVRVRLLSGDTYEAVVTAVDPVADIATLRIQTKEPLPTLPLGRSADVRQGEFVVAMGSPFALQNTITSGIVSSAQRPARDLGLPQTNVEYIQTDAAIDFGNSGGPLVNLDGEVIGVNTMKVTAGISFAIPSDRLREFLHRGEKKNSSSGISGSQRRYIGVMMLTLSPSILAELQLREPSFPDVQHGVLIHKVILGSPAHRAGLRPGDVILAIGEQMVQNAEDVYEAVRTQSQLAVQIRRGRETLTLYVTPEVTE

Chain of His-Max made in bacteria, P61244 (P61244 whole entry): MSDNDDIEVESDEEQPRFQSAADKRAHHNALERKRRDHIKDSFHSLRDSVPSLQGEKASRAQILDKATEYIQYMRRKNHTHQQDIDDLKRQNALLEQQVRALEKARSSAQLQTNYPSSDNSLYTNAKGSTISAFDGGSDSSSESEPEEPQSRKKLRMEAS

B1: Mxi2 as a hemaglutinin epitope-tagged fusion (Mxi2-HA), expressed in 293 cells (protein)
chain: MSQERPTFYRQELNKTIWEVPERYQNLSPVGSGAYGSVCAAFDTKTGLRVAVKKLSRPFQSIIHAKRTYRELRLLKHMKHENVIGLLDVFTPARSLEEFNDVYLVTHLMGADLNNIVKCQKLTDDHVQFLIYQILRGLKYIHSADIIHRDLKPSNLAVNEDCELKILDFGLARHTDDEMTGYVATRWYRAPEIMLNWMHYNQTVDIWSVGCIMAELLTGRTLFPGTDHIDQLKLILRLVGTPGAELLKKISSESARNYIQSLTQMPKMNFANVFIGANPLGKLTIYPHLMDIELVMI
- phosphorylation of Max by isolated HA-Mxi2 (autoradiograph) [1]: The autoradiograph shows Omi as well as Max protein was phosphorylated
- phosphorylation of Max in the same kinase reaction [1]: Max was also phopshorylated very efficiently
- phosphorylation of Omi by isolated HA-Mxi2 (autoradiograph) [2]: The autoradiograph shows Omi as well as Max protein was phosphorylated
- phosphorylation of Omi in a kinase reaction on the immunoprecipitated Omi/Mxi2 complex ([gamma-32P]ATP, autoradiography) [2]: Phosphorylated Omi is shown as a doublet of phosphorylated polypeptides with a molecular weight of 57-59 kD
- proteolytic activity of Omi (colorimetric assay, absorbance at 450 nm) [2]: the proteolytic activity of Omi increases dramatically when phosphorylated by Mxi2
